# Measured values: US10413588B2, “Probiotic function of human intelectin” (Wisconsin Alumni Research Foundation, priority 2015, dated 2019)
# Entries after “also recorded” stand apart in the source; their conditions may differ.
# B1: hIntL-1: human lectin intelectin-1, accession no. Q8WWA0; recombinant disulfide-linked trimer from HEK 293T cells, used also N-terminally Strep-tagged (Strep-hIntL-1) (protein, listed as Homo sapiens)
# chain: MNQLSFLLFLIATTRGWSTDEANTYFKEWTCSSSPSLPRSCKEIKDECPSAFDGLYFLRTENGVIYQTFCDMTSGGGGWTLVASVHENDMRGKCTVGDRWSSQQGSKAVYPEGDGNWANYNTFGSAEAATSDDYKNPGYYDIQAKDLGIWHVPNKSPMQHWRNSSLLRYRTDTGFLQTLGHNLFGIYQKYPVKYGEGKCWTDNGPVIPVVYDFGDAQKTASYYSPYGQREFTAGFVQFRVFNNERAANALCAGMRVTGCNTEHHCIGGGGYFPEASPQQCGDFSGFDWSGYGTHVGYSSSREITEAAVLLFYR
# How the values were obtained:
# [1] = Microbial Glycan Microarray (MGMv2); assay type: binding, S. pneumonia; details: Strep-hIntL-1 50 μg/mL; α-Galf containing glycan
# Procedure: (§1) Strep-hIntL-1 was used to interrogate the Microbial Glycan Microarray version 2 (MGMv2). Construction of the MGMv2 is previously described. Briefly, bacterial polysaccharide samples were dissolved and diluted to 0.5 mg/mL in printing buffer (150 mM sodium phosphate buffer (8.4)+0.005% Tween-20). Samples were immobilized on NETS-activated glass slides (SlideH, Schott/Nexterion) using a MicroGrid II (Digilab) contact microarray printer equipped with SMP-4B printing pins (Telechem). Six replicates of each bacterial glycan sample were printed. Covalent coupling of glycans to the surface was facilitated by incubation for 1 hour postprint at 100% relative humidity. The remaining reactive NHS-moieties were quenched using a blocking solution (50 mM ethanolamine in 50 mM borate buffer (9.2)). Blocked slides were stored at −20° C. until assays were performed. […] The Strep-Tag® II on bound hIntL-1 was detected using StrepMAB-Classic Chromeo647 (10 μg/mL, IBA GmbH Lifesciences) diluted in binding buffer applied directly to the array surface and allowed to incubate for 1 hour. […] Signal data was calculated as the average of 4 values after removing the high and low values of the 6 replicates. Data were plotted using Excel (Microsoft) as average Relative Fluorescence Units (RFU) versus print identification number. […]
# [2] = Microbial Glycan Microarray (MGMv2); assay type: binding, Salmonella enterica; details: Strep-hIntL-1 50 μg/mL; terminal α-Galf residue
# Procedure: as §1
# [3] = CFG mammalian glycan array v5.1; assay type: binding; details: hIntL-1 at 50 and 200 μg/ml
# [4] = hIntL-1 carbohydrate binding ELISA-like assay
# Procedure: (§2) To fabricate carbohydrate-displaying surfaces, 0.5 μg of streptavidin (Prozyme, cat. no. SA20) was adsorbed onto a Maxisorp (Nunc) flat bottom 96 well plate in PBS. Wells were washed with PBS and then coated with 5 μM of carbohydrate-biotin ligand in PBS for 1 hour at 22° C. Wells were blocked with bovine serum albumin (BSA) in ELISA buffer (20 mM HEPES (7.4) 150 mM NaCl, 10 mM CaCl2, and 0.1% tween-20). Samples containing hIntL-1 were prepared by serial dilution into ELISA buffer+0.1% BSA and added to wells for 2 hours at 22° C. Wells were washed four times with ELISA buffer. Bound hIntL-1 was detected using 0.75 μg/mL of a sheep IgG hIntL-1 antibody (R&D Systems, cat. no. AF4254) in ELISA buffer+0.1% BSA for 2 hours at 22° C. Wells were washed with ELISA buffer. A donkey anti-sheep IgG horseradish peroxidase (HRP) conjugate (Jackson ImmunoResearch Laboratories) was added at a 1:5,000 dilution in ELISA buffer+0.1% BSA for 1 hour at 22° C. Wells were washed and hIntL-1 was detected colorimetrically with addition of 1-Step Ultra TMB-ELISA (Pierce). Once sufficient signal was achieved (typically <2 min.), the reaction was quenched with addition of equal volume 2 M H2SO4. Plates were read at 450 nm on an ELx800 plate reader (Bio-Tek). When testing the Ca^2+ dependency of hIntL-1, 1 mM EDTA replaced 10 mM CaCl2 in all steps. Data were analyzed on Prism6 (GraphPad). […]
# [5] = Microbial Glycan Microarray (MGMv2); assay type: binding, Shigella boydii; details: Strep-hIntL-1 50 μg/mL; terminal α-Galf residue
# Procedure: as §1
# [6] = hIntL-1 carbohydrate binding ELISA-like assay; details: ligands other than β-Galf
# Procedure: as §2
# [7] = tested on: adult male fecal microbiome; assay: Flow cytometry binding to adult fecal microbiome; parameters: species or system human; details: adult fecal sample, 15 μg/mL Strep-tagged-hIntL-1, 10 mM CaCl2
# Procedure: Human fecal samples provide a non-invasive proxy of the intestinal microbiome of a patient. The inventors have isolated the intestinal microbiome from human fecal samples and analyzed it for hIntL-1 binding. The isolated microbiome was fixed using an aqueous solution of 1% formaldehyde. Cells were stained as described elsewhere, using either a solution including calcium ions (100 mM) or one containing the calcium ion chelator EDTA. Microbes were exposed to 20 mM HEPES (pH 7.2), 150 mM NaCl, 10 mM CaCl2, 15 μg/mL Strep-tagged-hIntL-1, 0.1% bovine serum albumin (BSA), 0.05% tween-20, 2 μg/mL StrepMAB Classic conjugated to Oyster 645 (IBA Lifesciences, cat. no.: 2-1555-050). To test for a role for calcium ions, cells were exposed to a solution of 20 mM HEPES (pH 7.2), 150 mM NaCl, 1 mM EDTA, 15 μg/mL Strep-tagged-hIntL-1, 0.1% bovine serum albumin (BSA), 0.05% tween-20, 2 μg/mL StrepMAB Classic Conjugated to Oyster 645 (IBA Lifesciences, cat. no.: 2-1555-050). Cells are analyzed consecutively on a BD LSRII flow cytometer using identical instrument setting. Unstained cells, cells stained in the presence of calcium ions (10 mM), and cells stained in the presence of EDTA were directly compared. […]
molecule,measurement,setting,value
B1,average signal on microbial glycan array,[1],−9.6 RFU
same,signal on microbial glycan array,[2],66 RFU
same,binding to human glycan ligands on CFG mammalian glycan array,[3],none are bound by hIntL-1 with appreciable affinity
same,binding to immobilized α-Neu5Ac,[4],lack of affinity; also recorded: does not bind
same,signal on microbial glycan array,[5],26 RFU
same,binding to other immobilized carbohydrate ligands,[6],not detected
same,fraction of bacteria of the human microbiome bound by hIntL-1,[7],approximately 25%
